# According to patent US20070148164A1:
# Experiments:
# [1] = target: soluble monomeric hFcRn (human) (UniProt P55899); test: Biacore, IgGs immobilized on the same chip, soluble monomeric hFcRn; reference human IgG1
# hIgG (human IgG) = test: Biacore, hIgG immobilized
fold tighter Kd than hIgG [1] [fold],Kd (hIgG (human IgG)) [nM],Substance
2,,rabbit IgG1 (antibody)
,2000,soluble monomeric hFcRn (from UniProt P55899 24-297; P61769 21-119) (receptor)
